Data from US20230045284A1.

Target: Total cellular Ras (all isoforms KRas, HRas and NRas, endogenous, in human cell lines)
Assay: cell-based or functional assay

## RRSP*-DTB (catalytically inactive RRSP H4030A fused to DTB) (from UniProt P00588 186-535) (enzyme)
  dose needed for depletion of RAS in HCT-116 spheroids relative to RRSP-DTB: 10 fold

## RRSP-CPD-DTa-DTB (RRSP fused to the MARTX cysteine protease domain and detoxified diphtheria toxin) (from UniProt P00588 33-567) (enzyme)
  concentration giving partial RAS inactivation, western blot, HCT-116 cells: 100 pM

## RRSP-DTB (RRSP fused via a (G4S)2 linker to diphtheria toxin residues 186-535, DTT-DTR) (from UniProt P00588 186-535) (enzyme)
  IC50 of cell viability after 72 hours, HCT-116 cells: 1.5 pM
  IC50 of cell viability at 72 h, MDA-MB-436 cells: 5 pM
  IC50 of cell viability, MDA-MB-231 cells, 72 hours: 12 pM
  IC50 of viability of HCT-116 spheroids after 7 days: 85 pM
  concentration giving complete cleavage of RAS after 1 h, western blot, MDA-MB-436 cells: 10 nM
